Results reported in publication PMC6028919, “Scc2 Is a Potent Activator of Cohesin’s ATPase that Promotes Loading by Binding Scc1 without Pds5” (Molecular Cell, 2018).

B1: His6-Pds5 (natural protein)
chain: MAKGAVTKLKFNSPIISTSDQLISTNELLDRLKALHEELASLDQDNTDLTGLDKYRDALVSRKLLKHKDVGIRAFTACCLSDILRLYAPDAPYTDAQLTDIFKLVLSQFEQLGDQENGYHIQQTYLITKLLEYRSIVLLADLPSSNNLLIELFHIFYDPNKSFPARLFNVIGGILGEVISEFDSVPLEVLRLIFNKFLTYNPNEIPEGLNVTSDCGYEVSLILCDTYSNRMSRHLTKYYSEIIHEATNDDNNSRLLTVVVKLHKLVLRLWETVPELINAVIGFIYHELSSENELFRKEATKLIGQILTSYSDLNFVSTHSDTFKAWISKIADISPDVRVEWTESIPQIIATREDISKELNQALAKTFIDSDPRVRRTSVMIFNKVPVTEIWKNITNKAIYTSLLHLAREKHKEVRELCINTMAKFYSNSLNEIERTYQNKEIWEIIDTIPSTLYNLYYINDLNINEQVDSVIFEYLLPFEPDNDKRVHRLLTVLSHFDKKAFTSFFAFNARQIKISFAISKYIDFSKFLNNQESMSSSQGPIVMNKYNQTLQWLASGLSDSTKAIDALETIKQFNDERIFYLLNACVTNDIPFLTFKNCYNELVSKLQTPGLFKKYNISTGASIMPRDIAKVIQILLFRASPIIYNVSNISVLLNLSNNSDAKQLDLKRRILDDISKVNPTLFKDQIRTLKTIIKDLDDPDAEKNDNLSLEEALKTLYKASKTLKDQVDFDDTFFFTKLYDFAVESKPEITKYATKLIALSPKAEETLKKIKIRILPLDLQKDKYFTSHIIVLMEIFKKFPHVLNDDSTDIISYLIKEVLLSNQVVGDSKKEIDWVEDSLLSDTKYSAIGNKVFTLKLFTNKLRSIAPDVPRDELAESFTEKTMKLFFYLIASGGELISEFNKEFYPTPSNYQTKLRCVAGIQVLKLARISNLNNFIKPSDIIKLINLVEDESLPVRKTFLEQLKDYVANELISIKFLPLVFFTAYEPDVELKTTTKIWINFTFGLKSFKKGTIFERALPRLIHAIAHHPDIVGGLDSEGDAYLNALTTAIDYLLFYFDSIAAQENFSLLYYLSERVKNYQDKLVEDEIDEEEGPQKEEAPKKHRPYGQKMYIIGELSQMILLNLKEKKNWQHSAYPGKLNLPSDLFKPFATVQEAQLSFKTYIPESLTEKIQNNIKAKIGRILHTSQTQRQRLQKRLLAHENNESQKKKKKVHHARSQADDEEGDGDRESDSDDDSYSPSNKNETKKGHENIVMKKLRVRKEVDYKDDEDDDIEMT
B2: GFP-ΔN132-Scc2-1xStrepII (domain or fragment, S. cerevisiae, UniProt Q04002 133-1493, looked up)
chain: KSEIVSRPEAKHKLESVTSNAGNLSFNDNSSNKKTKTSTGVTMTQANLAEQYLNDLKNILDIVGFDQNSAEIGNIEYWLQLPNKKFVLTTNCLTKLQMTIKNITDNPQLSNSIEITWLLRLLDVMVCNIKFSKSSLKMGLDDSMLRYIALLSTIVLFNIFLLGKNDSNLHRESYIMEPVNFLSDLIESLKILTIEYGSLKIEFDTFQEALELLPKYIRNGPFLDDNVTAKLVYIFSDLLMNNDIEATTNIQFQSFWDNVKRISSDILVSLFGSFDQQRGFIIEELLSHIEKLPTKRIQKKLRKVGNQNIYITDFTFTLMSMLENINCYSFCNQMKDIAPENIDLLKNEYKKQEEFLFNIVEHINDTILERFFKNPSALRYVIDNFVQDLLLLISSPQWPVTEKILSSLLKRLLSVYSPSMQVSANIETICLQLIGNIGSTIFDIKCSTRDHEDNNLIKMINYPETLPHFFKSFEECIAYNETIKCRRSATRFLWNLRLGTILILEEYTKDAKEQIITVDNELKKILEQIKDGGLGPELENREADFSTIKLDYFSILHAFELLNLYDPYLKLILSLLAKDKIKLRSTAIKCLSMLASKDKVILSNPMVKETIHRRLNDSSASVKDAILDLVSINSSYFEFYQQINNNYNDDSIMVRKHVLRINEKMYDETNDIVTKVYVIARILMKIEDEEDNIIDMARLILLNRWILKVHEVLDQPEKLKEISSSVLLVMSRVAIMNEKCSQLFDLFLNFYLLNKEAHSKEAYDKITHVLTILTDFLVQKIVELNSDDTNEKNSIVDKQNFLNLLAKFADSTVSFLTKDHITALYPYMVSDEKSDFHYYILQVFRCTFEKLANFKQKFLYDLETTLLSRLPKMNVREIDEAMPLIWSVATHRHDTARVAKACSSCLSHLHPYINKANNEEAAIVVDGKLQRLIYLSTGFARFCFPKPSNDKIAFLQEGETLYEHITKCLLVLSKDKITHVIRRVAVKNLTKLCGNHPKLFNSRHVLHLLDKEFQSDQLDIKLVILESLYDLFLLEERKSVRNTGVNSTLSSNSILKKKLLKTNRVEFANDGVCSALATRFLDNILQLCLLRDLKNSLVAIRLLKLILKFGYTNPSHSIPTVIALFASTSQYIRHVAYELLEDLFEKYETLVFSSLSRGVTKAIHYSIHTDEKYYYKHDHFLSLLEKLCGTGKKNGPKFFKVLKRIMQSYLDDITDLTSTNSSVQKSIFVLCTNISNITFVSQYDLVSLLKTIDLTTDRLKEVIMDEIGDNVSSLSVSEEKLSGIILIQLSLQDLGTYLLHLYGLRDDVLLLDIVEESELKNKQLPAKKPDISKFSAQLENIEQYSSNGKLLTYFRKHVKDT
notes: Scc2, S. cerevisiae, synthetic codon-optimised gene; also called GFP-Scc2; Scc2-GFP; source: Sf9, baculovirus, purified (StrepTrap, gel filtration); not shown: GFP, N-terminal, kept; StrepII, C-terminal, kept

What was measured:
[1] = target: cohesin tetramer (Smc1, Smc3, Scc1, Scc3) (S. cerevisiae) (UniProt P32908)
[2] = target: T1, cohesin tetramer with scc1Δ152–256 (Smc1, Smc3, Scc1Δ152-256, Scc3) (S. cerevisiae, UniProt P32908 1-1225; P47037 1-1230; Q12158 1-566; P40541 1-1150, Δ152-256); assay: co-IP; GFP-Scc2 held by anti-GFP antibody on Protein G Dynabeads; tetramers and GFP-Scc2 in an ATPase reaction, 25°C, 45 min, then beads 45 min at room temperature; washes with 100 mM NaCl; Coomassie-stained SDS-PAGE; conditions: both partners purified
T1 construct: Smc1, S. cerevisiae, synthetic codon-optimised gene; Smc3, S. cerevisiae, synthetic codon-optimised gene; Scc1 (kleisin; Mcd1), S. cerevisiae, synthetic codon-optimised gene; Scc3, S. cerevisiae, synthetic codon-optimised gene; source: Sf9, co-expressed (baculovirus), purified (StrepTrap, gel filtration); not shown: 2xStrepII, C-terminal, kept; copies: + + +

[3] = target: T2, cohesin tetramer (Smc1, Smc3, Scc1, Scc3) (S. cerevisiae, UniProt P32908 1-1225; P47037 1-1230; Q12158 1-566; P40541 1-1150); assay: as above; conditions: both partners purified
T2 construct: Smc1, S. cerevisiae, synthetic codon-optimised gene; Smc3, S. cerevisiae, synthetic codon-optimised gene; Scc1 (kleisin; Mcd1), S. cerevisiae, synthetic codon-optimised gene; Scc3, S. cerevisiae, synthetic codon-optimised gene; also called wild-type tetramers; source: Sf9, co-expressed (baculovirus), purified (StrepTrap, gel filtration); not shown: 2xStrepII, C-terminal, …
T2 sequence (P32908 whole entry, chain 1 of 4): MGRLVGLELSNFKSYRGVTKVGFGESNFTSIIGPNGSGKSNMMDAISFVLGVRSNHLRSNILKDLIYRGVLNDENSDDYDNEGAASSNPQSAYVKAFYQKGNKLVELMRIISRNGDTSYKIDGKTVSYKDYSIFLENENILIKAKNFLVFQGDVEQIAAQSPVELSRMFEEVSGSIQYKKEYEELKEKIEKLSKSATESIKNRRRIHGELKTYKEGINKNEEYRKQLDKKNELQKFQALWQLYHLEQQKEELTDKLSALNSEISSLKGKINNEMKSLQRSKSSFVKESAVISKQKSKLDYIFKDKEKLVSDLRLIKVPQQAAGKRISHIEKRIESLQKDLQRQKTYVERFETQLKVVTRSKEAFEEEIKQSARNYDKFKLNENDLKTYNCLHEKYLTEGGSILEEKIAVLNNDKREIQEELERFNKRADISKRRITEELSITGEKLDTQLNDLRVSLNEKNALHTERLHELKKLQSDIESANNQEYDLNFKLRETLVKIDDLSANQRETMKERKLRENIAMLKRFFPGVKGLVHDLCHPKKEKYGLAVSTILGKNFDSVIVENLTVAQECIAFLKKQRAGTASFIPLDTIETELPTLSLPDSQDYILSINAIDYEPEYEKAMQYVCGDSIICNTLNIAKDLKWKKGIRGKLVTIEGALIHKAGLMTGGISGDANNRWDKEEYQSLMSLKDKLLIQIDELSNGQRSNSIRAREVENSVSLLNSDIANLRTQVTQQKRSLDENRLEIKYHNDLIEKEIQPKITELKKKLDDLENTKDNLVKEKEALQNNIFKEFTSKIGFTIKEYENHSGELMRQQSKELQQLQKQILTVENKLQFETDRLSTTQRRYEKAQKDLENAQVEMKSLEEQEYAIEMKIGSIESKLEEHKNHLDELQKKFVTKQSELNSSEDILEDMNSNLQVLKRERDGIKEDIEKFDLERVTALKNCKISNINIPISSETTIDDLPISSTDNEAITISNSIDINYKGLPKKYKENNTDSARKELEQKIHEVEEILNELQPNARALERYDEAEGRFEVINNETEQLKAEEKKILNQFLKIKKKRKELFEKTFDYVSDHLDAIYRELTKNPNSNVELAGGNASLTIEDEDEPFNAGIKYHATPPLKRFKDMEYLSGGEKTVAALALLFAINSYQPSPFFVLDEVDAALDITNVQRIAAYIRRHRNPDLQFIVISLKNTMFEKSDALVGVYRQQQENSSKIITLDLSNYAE
T2 sequence (P47037 whole entry, chain 2 of 4): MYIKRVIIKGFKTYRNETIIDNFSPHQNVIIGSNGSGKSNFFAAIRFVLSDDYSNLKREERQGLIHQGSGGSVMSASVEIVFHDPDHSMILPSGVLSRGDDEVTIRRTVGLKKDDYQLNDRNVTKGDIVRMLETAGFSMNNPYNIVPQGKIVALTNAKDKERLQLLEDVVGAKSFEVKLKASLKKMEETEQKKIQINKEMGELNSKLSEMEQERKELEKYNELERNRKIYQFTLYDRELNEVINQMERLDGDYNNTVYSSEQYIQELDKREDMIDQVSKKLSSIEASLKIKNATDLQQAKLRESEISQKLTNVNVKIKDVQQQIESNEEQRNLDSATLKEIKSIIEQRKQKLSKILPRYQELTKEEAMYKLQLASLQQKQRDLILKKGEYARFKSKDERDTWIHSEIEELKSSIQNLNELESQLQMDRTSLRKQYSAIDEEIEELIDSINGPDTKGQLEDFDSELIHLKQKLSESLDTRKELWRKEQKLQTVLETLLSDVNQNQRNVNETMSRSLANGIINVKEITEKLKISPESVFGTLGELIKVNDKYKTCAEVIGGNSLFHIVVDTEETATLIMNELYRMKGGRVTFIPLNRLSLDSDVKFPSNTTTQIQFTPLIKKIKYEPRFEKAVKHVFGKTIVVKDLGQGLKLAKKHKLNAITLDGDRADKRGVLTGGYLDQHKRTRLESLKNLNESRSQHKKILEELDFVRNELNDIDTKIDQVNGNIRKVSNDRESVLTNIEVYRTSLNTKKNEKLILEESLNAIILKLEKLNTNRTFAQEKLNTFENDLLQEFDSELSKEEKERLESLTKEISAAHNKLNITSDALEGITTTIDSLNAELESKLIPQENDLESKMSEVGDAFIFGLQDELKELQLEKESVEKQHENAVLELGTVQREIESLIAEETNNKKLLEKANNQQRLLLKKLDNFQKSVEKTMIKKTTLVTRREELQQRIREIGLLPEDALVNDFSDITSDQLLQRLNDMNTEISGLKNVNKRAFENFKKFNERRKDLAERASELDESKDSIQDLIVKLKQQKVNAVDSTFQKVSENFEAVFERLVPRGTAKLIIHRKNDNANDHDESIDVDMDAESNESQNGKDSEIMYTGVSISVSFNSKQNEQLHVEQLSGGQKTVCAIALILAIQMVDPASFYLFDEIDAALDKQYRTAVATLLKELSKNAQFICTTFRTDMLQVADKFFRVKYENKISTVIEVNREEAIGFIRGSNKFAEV
T2 sequence (Q12158 whole entry, chain 3 of 4): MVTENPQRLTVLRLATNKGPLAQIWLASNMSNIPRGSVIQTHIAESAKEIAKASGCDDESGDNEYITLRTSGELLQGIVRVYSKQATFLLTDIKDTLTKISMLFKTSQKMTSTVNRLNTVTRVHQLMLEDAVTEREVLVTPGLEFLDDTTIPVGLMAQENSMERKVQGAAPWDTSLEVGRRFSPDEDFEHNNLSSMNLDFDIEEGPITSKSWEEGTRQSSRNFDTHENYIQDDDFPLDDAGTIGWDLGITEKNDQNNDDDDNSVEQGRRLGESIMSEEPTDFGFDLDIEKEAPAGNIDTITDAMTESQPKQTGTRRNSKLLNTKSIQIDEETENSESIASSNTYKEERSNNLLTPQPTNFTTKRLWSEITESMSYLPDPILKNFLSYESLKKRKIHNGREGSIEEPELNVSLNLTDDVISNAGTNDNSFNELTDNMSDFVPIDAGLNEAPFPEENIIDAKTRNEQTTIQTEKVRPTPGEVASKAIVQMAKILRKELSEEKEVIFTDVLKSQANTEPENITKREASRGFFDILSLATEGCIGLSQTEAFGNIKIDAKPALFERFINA
T2 sequence (P40541 whole entry, chain 4 of 4): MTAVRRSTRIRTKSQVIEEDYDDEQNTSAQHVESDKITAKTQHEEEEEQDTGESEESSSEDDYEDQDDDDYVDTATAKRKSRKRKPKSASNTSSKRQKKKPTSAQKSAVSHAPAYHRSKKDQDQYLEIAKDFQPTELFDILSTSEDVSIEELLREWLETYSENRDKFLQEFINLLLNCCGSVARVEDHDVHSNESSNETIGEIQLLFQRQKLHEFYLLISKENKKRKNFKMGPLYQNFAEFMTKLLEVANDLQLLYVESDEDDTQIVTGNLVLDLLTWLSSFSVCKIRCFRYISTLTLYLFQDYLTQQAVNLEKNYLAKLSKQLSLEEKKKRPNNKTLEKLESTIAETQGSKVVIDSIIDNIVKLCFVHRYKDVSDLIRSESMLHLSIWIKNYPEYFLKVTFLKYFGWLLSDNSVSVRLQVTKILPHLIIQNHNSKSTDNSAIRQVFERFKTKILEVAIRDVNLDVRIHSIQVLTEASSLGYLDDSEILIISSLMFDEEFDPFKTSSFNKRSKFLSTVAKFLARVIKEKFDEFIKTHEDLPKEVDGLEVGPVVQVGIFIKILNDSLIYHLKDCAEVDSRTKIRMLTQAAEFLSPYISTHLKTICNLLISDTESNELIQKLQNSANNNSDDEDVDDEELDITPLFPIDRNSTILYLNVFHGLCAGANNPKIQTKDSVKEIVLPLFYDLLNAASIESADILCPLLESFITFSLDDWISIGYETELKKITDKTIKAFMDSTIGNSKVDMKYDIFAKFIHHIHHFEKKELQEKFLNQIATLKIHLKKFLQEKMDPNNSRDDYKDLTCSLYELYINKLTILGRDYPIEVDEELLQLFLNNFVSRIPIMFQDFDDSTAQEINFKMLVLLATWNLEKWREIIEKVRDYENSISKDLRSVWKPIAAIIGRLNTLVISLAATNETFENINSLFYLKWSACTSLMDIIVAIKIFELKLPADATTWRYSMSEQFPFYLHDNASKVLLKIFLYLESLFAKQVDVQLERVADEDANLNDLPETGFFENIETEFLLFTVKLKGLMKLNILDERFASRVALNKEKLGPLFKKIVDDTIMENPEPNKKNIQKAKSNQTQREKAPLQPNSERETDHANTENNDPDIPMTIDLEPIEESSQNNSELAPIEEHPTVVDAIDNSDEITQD

| Binder | Scc2-stimulated ATPase activity of cohesin tetramers with a three-fold molar excess of Pds5, in the absence of DNA [1] [fold] | binding result [2] | binding result [3] |
| --- | --- | --- | --- |
| B1 | 2 | – | – |
| B2 | – | binds | binds |
